Measurements from patent US20110293610A1 (published 2011).

T1: TNF-beta (human, UniProt P01374 35-205)
T1 construct: also called TNFβ; Tumour Necrosis Factor-beta
T1 sequence (looked up): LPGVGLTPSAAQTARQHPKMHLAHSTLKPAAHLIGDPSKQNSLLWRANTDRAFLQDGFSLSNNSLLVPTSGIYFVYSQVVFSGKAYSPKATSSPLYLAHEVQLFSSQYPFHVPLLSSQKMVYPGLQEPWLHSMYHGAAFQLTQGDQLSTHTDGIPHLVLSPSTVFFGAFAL


Key:
[1] = target: T2, TNF-alpha (human, UniProt P01375 77-233); experiment: phage ELISA
T2 construct: also called TNFα; TNF-α

[2] = target: T3, B Lymphocyte Stimulator, soluble form (human) (human, UniProt Q9Y275 134-285, biotinylated with NHS-biotin where used as biotinylated B Lymphocyte Stimulator); experiment: phage ELISA
T3 construct: Coated on plastic, captured on streptavidin plates, amine-coupled to a CM5 chip or free in solution, depending on the assay; also called BLyS; immobilized B Lymphocyte Stimulator

[3] = target: LIGHT (human, UniProt O43557 74-240, limits assumed); experiment: phage ELISA
Sequence of LIGHT (O43557 74-240 limits assumed): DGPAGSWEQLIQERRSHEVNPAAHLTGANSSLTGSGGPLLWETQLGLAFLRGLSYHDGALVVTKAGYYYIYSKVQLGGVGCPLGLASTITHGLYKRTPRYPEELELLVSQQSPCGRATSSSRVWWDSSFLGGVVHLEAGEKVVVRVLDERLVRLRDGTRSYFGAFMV

[4] = target: T4, TRAIL (human, UniProt P50591 114-281); experiment: phage ELISA
T4 construct: also called TNF-related apoptosis inducing ligand
T4 sequence (P50591 114-281 limits assumed): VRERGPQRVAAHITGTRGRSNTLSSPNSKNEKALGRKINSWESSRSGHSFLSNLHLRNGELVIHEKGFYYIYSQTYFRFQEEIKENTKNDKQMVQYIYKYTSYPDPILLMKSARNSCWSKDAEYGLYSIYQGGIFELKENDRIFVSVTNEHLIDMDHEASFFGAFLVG

[5] = target: T1, TNF-beta; experiment: phage ELISA
[6] = target: T5, biotinylated B Lymphocyte Stimulator, soluble form (human, UniProt Q9Y275 134-285, biotinylated with NHS-biotin, molar ratio 20:1 biotin:protein); experiment: phage scFv, receptor binding inhibition on IM9 cells
T5 construct: also called bio-B Lymphocyte Stimulator; free B Lymphocyte Stimulator
Experimental: All of the unique phage scFvs from panel 2 were assessed for their ability to inhibit B Lymphocyte Stimulator binding to its cognate receptor on IM9 cells. The biotinylation of B Lymphocyte Stimulator, maintenance of IM9 cells and receptor binding inhibition assay were performed as described in Example 3.

T2 sequence (P01375 77-233 limits assumed): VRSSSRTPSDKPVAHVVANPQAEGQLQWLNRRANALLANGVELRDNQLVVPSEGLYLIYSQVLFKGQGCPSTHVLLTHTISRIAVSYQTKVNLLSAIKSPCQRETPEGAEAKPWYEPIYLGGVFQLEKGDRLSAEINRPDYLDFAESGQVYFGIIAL

Row | Binder | binding result [1] | binding result [2] | binding result [3] | binding result [4] | binding result [5] | binding result [6]
1 | I064C04 (scFv) scFv: QVQLVQSGAEVKKPGASVKVSCEASGYTFTSYGISWVRQAPGQGLEWMGWISTYNGNTRYPQKLQGRVTMTTDTSTSTAYMDLRSLRSDDTAVYYCARDGRLSYDILTGYYARDYYGMDDWGRGTMVTVSSGGGGSGGGGSGGGGSQSVLTQPASVSGSPGQSITISCTGTSSDVGGYNYVSWYQQHPGKAPKLMIYEGSKRPSGVSNRFSGSKSGNTASLTISGLQAEDEADYYCSSYTTRSTRVFGGGTKLTVLG | no binding | binds | no binding | no binding | no binding | 
2 | I065D04 (scFv) scFv: QVQLQESGPGLVKPSETLSLTCTVSGGSISSGYYWGWVRQPPGQGLEWIGSIYHSGSTYHNPSLKSRVTISMDTSKNQFSLNLNSVTAADTAVYYCARGKGYYDILTGYYRDNWFDPWGRGTLVTVSSGGGGSGGGGSGGGGSQSVLTQPASVSGSPGQSITISCTGTSSDVGGYNYVSWYQQHPGKAPKLMIYEGSKRPSGVSNRFSGSKSGNTASLTISGLQAEDEADYYCSSYTTRSTRVFGGGTKLTVLG | no binding | binds | no binding | no binding | no binding | 
3 | I026C04 (scFv) scFv: QVQLVQSGAEVKKPGSSVKVSCRASGGSFNHAISWVRQAPGRGLEWMGGILPMYGTANYAQKFQGRVTITADKLTNTVYMDLSRLRYEDTAVYYCARELGLSIVGATTGALDMWGKGTLVTVSSGGGGSGGGGSGGGGSAQSVLTQPPSVSAAPGQKVTISCSGSSSNIGNNYVSWYQQIPGTAPKLLIYENNKRPSGIPDRFSGSKSGASATLDITGLQTGDEADYYCGTWHSSQVVFGGGTKLTVLG |  |  |  |  |  | binds
4 | I072B09 (scFv) scFv: QVQLQQSGAEVKKPGASVKVSCRASGYTFTKYTMHWVRQAPGQGPEWMGWINGGSGDTKYSRKFQGRVTITKDTSASAAYMELSSLGSEDTALYYCARATYDPLTGYSFDGFDIWGQGTLVTVSSGGGGSGGGGSGGGGSSELTQDPAVSVALGQTVRITCQGDSLRSYYTNWFQQKPGQAPLLVVYAKNKRPSGIPDRFSGSSSGNTASLTITGAQAEDEADYYCNSRDSSGNHVVFGGGTKLTVLD | no binding | binds | no binding | no binding | no binding | 
5 | I068C08 (scFv) scFv: QVQLQQSGAEVKKPGSSVKVSCQASGGSFSREGISWVRQAPGHGLEWMGRIIPVLGVADYAQKFQGRVKISVDRLTSVAYMELTSLRFEDTAVYYCAREGMNDFINSHHYYTMDAWGQGTLVTVSSGGGGSGGGGSGGGGSAQAVLTQPSSVSGAPGQRVTISCTGSSSNIGAGYDVHWYQQLPGTAPKLLIYGNSNRPSGVPDRFSGSKSGTSASLAITGLQAEDEADYYCQSYDSSLSGSVFGGGTKLTVLG | no binding | binds | no binding | no binding | no binding | 
6 | I065F08 (scFv) scFv: QVQLQQSGAEVKKPGSSVKVSCKASGDTFSSFGISWVRQVPGQGLEWMGAIIPKFDIVTYAEEFKGRVTISADKLTNTAYMEVKSLRSEDTAVYYCTREKSAAGYFDYWGKGTLVTVSSGGGGSGGGGSGGGGSDIVMTQSPSTLSASVGDRVTITCRASQGISSWLAWYQQKPGRAPKVLIYKASTLESGVPSRFSGSGSGTDFTLTISSLQPEDFATYYCQQSYSTPWTFGQGTKLEIKR | no binding | binds | no binding | no binding | no binding | 
7 | I069B07 (scFv) scFv: QVQLVQSGAEVKKPGASVKVSCKASGYTFTSYGISWVRQAPGQGLEWMGWISAYNGNTNYAQKLQGRVTMTTDTSTSTAYMELRSLRSEDTAVYYCARMEYDILTGYYGGYFDYWGQGTMVTVSSGGGGSGGGGSGGGGSQSVLTQPASVSGSPGQSITISCTGTSSDVGGYNYVSWYQQHPGKAPKLMIYEGSKRPSGVSNRFSGSKSGNTASLTISGLQAEDEADYYCSSYTTRSTRVFGGGTKLTVLG | no binding | binds | no binding | no binding | no binding | 
8 | I064C07 (scFv) scFv: QVQLVQSGAEVKKPGSSVKVSCKASGGTFSSYAISWVRQAPGQGLEWMGGIIPIFGTANYAQKFQGRVTITADDLTRTAYMEMSSLKFEDTAVYYCASSEGTIFGVDWGRGTLVTVSSGGGGSGGGGSGGGGSDIQMTQSPSFLSASVGDRVTITCRASQGINNYLAWYQQKPGRAPKLLMYAASSLQSGVPSRFSGSGSGTDFTLTISSLQPEDFATYYCLQDSDYPLTFGGGTKLEIKR | no binding | binds | no binding | no binding | no binding | 
9 | I071B03 (scFv) scFv: QVQLQQSGAEVKKPGASVKVSCKASGYTFTKYTMHWVRQAPGQGPEWMGWINGGSGDTKYSRKFQGRVTITKDTSASAAYMELSSLGSEDTALYYCARATYDPLTGYSFDGFDIWGQGTMVTVSSGGGGSGGGGSGGGGSQSVLTQPASVSGSPGQSITISCTGTSSDVGGYNYVSWYQQHPGKAPKLMIYEGSKRPSGVSNRFSGSKSGNTASLTISGLQAEDEADYYCSSYTTRSTRVFGGGTKLTVLD |  |  |  |  |  | binds

Continued, values first:

Row | binding result [1] | binding result [2] | binding result [3] | binding result [4] | binding result [5] | binding result [6] | Binder
10 | no binding | binds | no binding | no binding | no binding |  | I075G01 (scFv) scFv: QVQLVQSGAEVKKPGASVKVSCKTSGYTFTGYNINWVRQAPGQGLEWMGWVSPSNGDTSYAQTFQGRVTMTRDTSISTAYMELSSLKSDDTAVYYCARDHFDTLTGYFRRLDSWGQGTLVTVSSGGGGSGGGGSGGGGSALSSELTQDPEVSVALGQTVTITCQGDSLITHYASWFQQKPGQAPLLVFYSKDKRPSGIPDRFSGSYSGNTASLTITGAQAEDEADYYCNSRDSRGKNHVAFGGGTKLTVLG
11 | no binding | binds | no binding | no binding | no binding |  | I067B10 (scFv) scFv: QMQLVQSGAEVKKPGASVKVSCKASGYTFTSYYMHWVRQAPGQGLEWMGWINAGNSNTKYSQKFQGRVTITSDTSASTAYMELSGLRSEDTAVYYCARDRGAPNYDILTGYYAPAQGVAFDIWGKGTLATVSSGGGGSGGGGSGGGGSQSVLTQPPSVSAAPGQKVTISCSGSTSNIGNNYVSWYQQHPGKAPKLMIYDVSKRPSGVPDRFSGSKSGNSASLDISGLQSEDEADYYCAAWDDSLSEFLFGTGTKLTVLG
12 | no binding | binds | no binding | no binding | no binding |  | I078D08 (scFv) scFv: QVNLRESGGGLVQPGGSLRLSCAASGFTFSSYWMSWVRQAPGKGLEWVANIKQDGSEKYYVDSVKGRFTISRDNSKNTLYLQMNSLRAEDTAVYYCARDAQSYYDILTGYQSYAFDIWGQGTTVTVSSGGGGSGGGGSGGGGSSELTQDPAVSVALGQTVRITCQGDSLRSYYTNWFQQKPGQAPLLVVYAKNKRPSGIPDRFSGSSSGNTASLTITGAQAEDEADYYCHSRDSSGNHVLFGGGTKLTVLG
13 | no binding | binds | no binding | no binding | no binding |  | I068F03 (scFv) scFv: EVQLVQSGADVKKPGASVKVSCKASHYPFTTYGVSWVRQAPGQGLEWMGWISNYNGHTRYAPKFQGRVTLTTDTLTNTAFMELKSLTSDDTAIYYCARAGNEYGHTERPADYWGKGTMVTVSSGGGGSGGGGSGGGGSAQAVLTQPSSVSGAPGQRVTISCTGSSSNIGAGYDVHWYQQLPGTTPKLLISRNNNRPPGVPDRFSGSKSGTSASLAITGLQAEDEADYYCQSYDTTLRGWVFGGGTKVTVLG
14 | no binding | binds | no binding | no binding | no binding |  | I073F04 (scFv) scFv: QVQLQQSGAEVKKPGSSVKVSCKASGGTFRSYAFSWVRQAPGQGLEWMGYIVPVFGTATYAQNFQGRVTITADELTTTAFMELSSLTSEDTAVYYCARSLATRPLGMDVWGRGTTVTVSSGGGGSGGGGSGGGGSQSVLTQPASVSGSPGQSITISCTGTSSDVGGYNYVSWYQQHPGKAPKLMIYEGSKRPSGVSNRFSGSKSGNTASLTISGLQAEDEADYYCSSYTTRSTRVFGGGTKLTVLG
